*1 amine or outer side, *2 acyl side, *3 side chain or, on linkers, in order; H or OH if unused. Where no end group is shown, it is not given here. Side-chain parts run from the residue outwards. [ ]: non-standard residue; d: D form. The star is where a group is joined. C18 diacid = O=C(O)CCCCCCCCCCCCCCCCC(=O)*; γGlu = O=C(O)[C@H](CCC(=O)[*:2])N[*:1]; AEEA = NCCOCCOCC(=O)O; Aib = CC(C)(N)C(=O)O
Columns and labels:
Test in all cases: cell-based or functional assay
human SNAP-tagged GLP-2R = target: T1, human SNAP-tagged GLP-2R (human, UniProt O95838 1-553, SNAP tag labeled with Tag-Lite SNAP-Lumi4-Tb)
T1 sequence (looked up): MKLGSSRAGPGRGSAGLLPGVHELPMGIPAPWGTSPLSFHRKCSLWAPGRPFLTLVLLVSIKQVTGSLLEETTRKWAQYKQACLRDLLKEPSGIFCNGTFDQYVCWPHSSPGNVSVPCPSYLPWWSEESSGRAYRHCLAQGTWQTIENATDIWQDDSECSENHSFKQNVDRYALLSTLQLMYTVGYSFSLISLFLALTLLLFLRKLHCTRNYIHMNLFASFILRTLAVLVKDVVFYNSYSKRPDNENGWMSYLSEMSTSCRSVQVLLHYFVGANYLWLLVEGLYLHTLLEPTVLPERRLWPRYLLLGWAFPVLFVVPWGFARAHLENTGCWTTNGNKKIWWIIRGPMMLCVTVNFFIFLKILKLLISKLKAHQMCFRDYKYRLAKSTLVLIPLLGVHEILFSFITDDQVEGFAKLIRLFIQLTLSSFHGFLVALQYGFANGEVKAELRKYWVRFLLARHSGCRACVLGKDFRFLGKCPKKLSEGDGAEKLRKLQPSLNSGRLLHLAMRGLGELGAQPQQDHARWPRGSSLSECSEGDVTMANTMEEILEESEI

[1] = target: human glucagon receptor (GCGR) (human, UniProt P47871 26-477, limits assumed)
[2] = target: T2, human GLP-2R (glucagon-like peptide-2 receptor) (human, UniProt O95838 1-553)
T2 sequence (looked up): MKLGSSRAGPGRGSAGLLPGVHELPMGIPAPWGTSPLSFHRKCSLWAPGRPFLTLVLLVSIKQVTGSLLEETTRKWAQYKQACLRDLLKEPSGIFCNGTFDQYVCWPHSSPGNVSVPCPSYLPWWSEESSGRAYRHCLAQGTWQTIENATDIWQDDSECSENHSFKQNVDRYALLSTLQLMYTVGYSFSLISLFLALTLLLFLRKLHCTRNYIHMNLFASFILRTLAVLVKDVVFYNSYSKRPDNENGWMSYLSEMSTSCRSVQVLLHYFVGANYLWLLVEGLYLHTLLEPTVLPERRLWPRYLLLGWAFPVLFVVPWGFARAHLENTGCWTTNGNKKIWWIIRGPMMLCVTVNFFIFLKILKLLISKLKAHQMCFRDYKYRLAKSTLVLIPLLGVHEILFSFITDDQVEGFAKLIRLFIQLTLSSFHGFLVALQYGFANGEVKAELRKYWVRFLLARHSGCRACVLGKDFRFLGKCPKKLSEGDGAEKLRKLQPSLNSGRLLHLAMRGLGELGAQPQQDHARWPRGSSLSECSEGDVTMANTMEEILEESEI

[3] = target: T3, Human N-terminally SNAP-tagged GIPR (human, UniProt P48546 22-466, SNAP tag labeled with Tag-Lite SNAP-Lumi4-Tb)
T3 sequence (looked up): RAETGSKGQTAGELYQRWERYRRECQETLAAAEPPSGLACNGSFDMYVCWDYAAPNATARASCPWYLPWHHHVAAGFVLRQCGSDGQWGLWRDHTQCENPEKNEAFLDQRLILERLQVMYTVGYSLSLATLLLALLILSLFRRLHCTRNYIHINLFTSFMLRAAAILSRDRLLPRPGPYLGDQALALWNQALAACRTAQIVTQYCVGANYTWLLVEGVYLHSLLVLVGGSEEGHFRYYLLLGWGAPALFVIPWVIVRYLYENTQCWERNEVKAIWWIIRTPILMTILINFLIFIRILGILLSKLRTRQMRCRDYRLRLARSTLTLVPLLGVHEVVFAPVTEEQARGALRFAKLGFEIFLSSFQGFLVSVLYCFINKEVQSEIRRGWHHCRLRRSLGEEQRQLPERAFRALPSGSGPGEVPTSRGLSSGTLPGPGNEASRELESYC

human SNAP-tagged GLP-1R = human SNAP-tagged GLP-1R (human, UniProt P43220 24-463, SNAP tag labeled with Tag-Lite SNAP-Lumi4-Tb)
[4] = target: human GLP-1R (glucagon-like peptide-1 receptor) (human, UniProt P43220 24-463)
[5] = target: T4, human GIPR (glucose-dependent insulinotropic polypeptide receptor) (human, UniProt P48546 22-466)
T4 sequence (looked up): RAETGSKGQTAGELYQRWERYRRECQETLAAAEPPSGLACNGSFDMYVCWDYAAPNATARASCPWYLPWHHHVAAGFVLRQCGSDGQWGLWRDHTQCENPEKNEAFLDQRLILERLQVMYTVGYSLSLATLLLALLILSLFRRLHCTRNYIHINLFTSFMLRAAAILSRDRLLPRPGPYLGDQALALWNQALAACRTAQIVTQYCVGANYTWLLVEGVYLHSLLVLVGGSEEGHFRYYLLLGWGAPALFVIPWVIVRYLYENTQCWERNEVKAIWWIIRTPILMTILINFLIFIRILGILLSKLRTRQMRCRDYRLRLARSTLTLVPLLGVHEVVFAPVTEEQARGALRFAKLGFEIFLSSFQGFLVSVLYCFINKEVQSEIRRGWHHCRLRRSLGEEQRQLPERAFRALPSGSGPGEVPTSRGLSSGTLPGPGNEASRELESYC

Chain of human glucagon receptor (GCGR) (P47871 26-477 limits assumed): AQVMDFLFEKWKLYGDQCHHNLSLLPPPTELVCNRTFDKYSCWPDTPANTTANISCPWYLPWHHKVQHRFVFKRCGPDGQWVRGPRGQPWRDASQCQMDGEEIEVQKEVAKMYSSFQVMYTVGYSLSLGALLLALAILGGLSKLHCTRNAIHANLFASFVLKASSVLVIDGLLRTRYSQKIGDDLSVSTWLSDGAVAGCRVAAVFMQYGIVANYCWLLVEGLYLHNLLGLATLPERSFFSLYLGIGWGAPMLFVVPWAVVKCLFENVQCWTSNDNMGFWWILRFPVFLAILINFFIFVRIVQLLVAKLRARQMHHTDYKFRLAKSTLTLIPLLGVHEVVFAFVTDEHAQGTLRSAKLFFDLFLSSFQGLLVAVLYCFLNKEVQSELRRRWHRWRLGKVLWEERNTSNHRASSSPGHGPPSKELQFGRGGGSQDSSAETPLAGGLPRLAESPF

Row | Binder | Absolute hGLP-2R internalization (AUC) (human SNAP-tagged GLP-2R) | Relative hGLP-2R internalization (%) (human SNAP-tagged GLP-2R) | potency in Gs activation, measured as cAMP accumulation (-p Log EC50) [1] | EC50 (nM) GLP-2R [2] [nM] | Efficacy GLP-2R [2] | logEC50 GLP-2R [2] | Absolute hGIPR internalization (AUC) [3] [AUC] | Relative hGIPR internalization (%) [3] [%] | Absolute hGLP-1R internalization (AUC) (human SNAP-tagged GLP-1R) | Relative hGLP-1R internalization (%) (human SNAP-tagged GLP-1R) | EC50 (nM) GLP-1R [4] [nM] | Efficacy GLP-1R [4] | logEC50 GLP-1R [4] | EC50 (nM) GIPR [5] [nM] | Efficacy GIPR [5] | pEC50 GIPR [5]
1 | HADGTFTSDYSIILDK([AEEA-AEEA-γGlu-C18 diacid])LAARDFINWLIQTKGKKNDWKHNITQ-OH [Compound 20] | 39.4 | 81 | < 7 -p Log EC50 | 0.3 | 100 | 9.5 | 14.2 | 38 | 91.8 | 109 | 0.04 | 112 | 10.4 |  |  | 
2 | HADGTFTSDYSTILDK([AEEA-AEEA-γGlu-C18 diacid])LAARDFINWLIQTKGKKNDWKHNITQ-OH [Compound 21] | 36.3 | 74.6 | < 7 -p Log EC50 | 0.6 | 104 | 9.2 | 10.2 | 28 | 94.7 | 113 | 0.05 | 122 | 10.3 | 0.398 | 104 | 9.4
3 | HADGTFTSDYST[Aib]LDK([AEEA-AEEA-γGlu-C18 diacid])LAARDFINWLIQTKGKKNDWKHNITQ-OH [Compound 22] | 38 | 78.2 | < 7 -p Log EC50 | 0.6 | 93 | 9.3 | 7 | 19 | 78.8 | 93.7 | 0.04 | 116 | 10.5 | 1.12 | 93 | 9
4 | H[Aib]DGTFISDYSTILDALAARDFINWLIQTKITK([AEEA-AEEA-γGlu-C18 diacid])-OH [Compound 28] | 12 | 24.8 | < 7 -p Log EC50 |  | 89 | 8.7 | 21.7 | 59 | 0.96 | 1.14 | 3.98 | 102 | 8.4 | 0.071 | 119 | 10.2
